Tests used:
mutated p53 R273H = molecular target: T1, mutated p53 R273H (Homo sapiens, UniProt P04637, R273H); assay: transactivation experiments in yeast strain YDE4xp53 (LacZ expression, beta-galactosidase); format: cell-based; conditions: peptide expressed from the pESBA-ADH or pESBA-ACT vector in yeast
T1 construct: expressed in transfected cells; host or cells: Saccharomyces cerevisiae strain YDE4xp53 (derivative of JPY9)
Text: The agonistic action of the inventive screening system has been shown for the tumor suppressor gene p53. The tumor suppressor gene p53 is mutated in more than 50% of all human cancers which results in the inability to properly bind to the p53 binding site sin target genes responsible to induce cell cycle arrest or apoptosis. The four most commonly found mutations occur in the DNA binding domain of p53 and lead to a single amino acid substitution. […] This opens the possibility to use the peptide libraries according to the present invention to screen for peptides which restore the mutated p53 to wild type activity or to use this system to screen for agonistic actions of peptides in general. […]
Yeast strain YDE4xp53 was transformed with the conventional lithium acetate method (Methods in Yeast Genetics, a Cold Spring Harbor Laboratory Course Manual, Cold Spring Harbor Laboratory Press, 1994) with wild type and mutated p53 expression vectors. Transactivation potential of the different p53 molecules was determined by measurement of the LacZ expression on X-gal plates and liquid beta-galactosidase assays as described (Escher and Schaffner, Gene Activation at a Distance and Telomeric Silencing . . . , Mol. Gen. Genet. (1997) 256; 456-461). […]

mutated p53 (p53 R273H) = mutated p53 (p53 R273H) (Homo sapiens, UniProt P04637, R273H); conditions: synthetic peptide fused to the Drosophila Antennapedia internalisation domain (17 amino acids); cited from earlier work
[1] = molecular target: T2, interaction between GAL4 and GAL11P (Saccharomyces cerevisiae, UniProt P19659, N342I); assay: inhibition of GAL4(1-100)-GAL11P interaction and reporter gene (LacZ/URA3) activation in yeast; format: cell-based; conditions: expressed from a high-copy plasmid (2 μm) in yeast, vector pESBA-ADH1
T2 construct: expressed in transfected cells; host or cells: Saccharomyces cerevisiae, JPY9 derivative (gal4Δ11) with integrated pESBA-17mer-URA3
T2 sequence (P19659 whole entry N342I, the tested form may be a part): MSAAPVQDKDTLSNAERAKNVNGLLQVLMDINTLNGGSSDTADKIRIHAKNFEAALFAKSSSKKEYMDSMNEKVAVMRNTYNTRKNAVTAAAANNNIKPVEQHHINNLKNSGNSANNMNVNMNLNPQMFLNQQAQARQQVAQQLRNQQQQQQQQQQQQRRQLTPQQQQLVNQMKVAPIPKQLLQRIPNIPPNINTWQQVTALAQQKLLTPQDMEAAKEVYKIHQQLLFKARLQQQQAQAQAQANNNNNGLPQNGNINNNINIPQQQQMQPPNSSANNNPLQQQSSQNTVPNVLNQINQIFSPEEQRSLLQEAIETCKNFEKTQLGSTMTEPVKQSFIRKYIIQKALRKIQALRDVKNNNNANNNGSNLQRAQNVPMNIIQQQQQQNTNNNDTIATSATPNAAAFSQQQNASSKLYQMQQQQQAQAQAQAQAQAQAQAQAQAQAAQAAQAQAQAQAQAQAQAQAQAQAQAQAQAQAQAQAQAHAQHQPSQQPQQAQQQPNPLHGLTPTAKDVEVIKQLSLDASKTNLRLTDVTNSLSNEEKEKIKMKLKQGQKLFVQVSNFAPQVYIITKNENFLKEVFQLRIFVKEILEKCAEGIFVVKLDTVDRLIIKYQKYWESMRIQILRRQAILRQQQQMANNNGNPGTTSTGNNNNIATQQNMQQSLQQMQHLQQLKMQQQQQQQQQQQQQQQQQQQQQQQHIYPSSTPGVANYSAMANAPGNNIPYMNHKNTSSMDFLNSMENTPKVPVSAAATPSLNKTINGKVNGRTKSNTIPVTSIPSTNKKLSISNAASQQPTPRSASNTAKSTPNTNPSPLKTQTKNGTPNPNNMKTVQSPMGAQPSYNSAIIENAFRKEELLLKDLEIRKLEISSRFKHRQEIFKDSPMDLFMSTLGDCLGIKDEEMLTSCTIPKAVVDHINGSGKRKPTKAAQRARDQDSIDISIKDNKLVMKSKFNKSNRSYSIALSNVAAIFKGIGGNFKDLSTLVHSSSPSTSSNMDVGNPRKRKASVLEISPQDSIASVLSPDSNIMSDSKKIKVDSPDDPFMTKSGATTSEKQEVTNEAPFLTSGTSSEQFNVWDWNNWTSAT
Text: To test the antagonistic action of short protein fragments or peptides in yeast, it was checked whether high production of a peptide could inhibit a defined molecular interaction.
The yeast strain used in these experiments is a derivative of JPY9 (MATα, ura3-52, his3Δ200, leu2Δ1, trp1Δ63, lys2Δ385, gal4Δ11) (A. Barberis et al., Cell, Vol. 81, 359-368) in which the reporter construct pESBA-17mer-URA3 was integrated at the his3 locus. Integration through homologous recombination was piloted by linearisation of the reporter plasmid at the XhoI site prior to yeast transformation. Expression of the URA3 gene was exploited to select for stable integrants on ura-media. […] Upon selection for integration of the reporter construct, this plasmid was readily cured from yeast cells by negative selection for URA3 expression on media containing 5-FOA (ref. Guide to Yeast Genetics and Molecular Biology)
Activation of the divergent LacZ and URA3 reporter genes in the yeast strain described above was induced by co-expression of the DNA-binding domain of GAL4 (amino acid residues 1-100) and GAL11P. GAL4(1-100) was expressed from the plasmid pRJR217 (Y. Wu et al., Quantification of Putative Activator- Target Affinities . . . , EMBO J. 15, 3951-3963, 1996), while GALllP was expressed from pSO28 (A. Barberis et. al., Cell Vol. 81, 359-368). […]

Substance	reactivation of mutated p53 R273H in transactivation experiments (mutated p53 R273H)	restoration of DNA binding activity of the mutated p53 (mutated p53 (p53 R273H))	inhibition of GAL4-GAL11P protein-protein interaction and its effect on gene expression [1]
22mer peptide 46: 22 amino acid long peptide stemming from the carboxy-terminal part of p53 (361-382) (GSRAHSSHLKSKKGQSTSRHKK; UniProt P04637 361-382, looked up, fragment)	sufficient to partially reactivate mutated p53 R273H	can restore DNA binding activity of the mutated p53	
short protein fragment: peptide comprising the GAL4 residues 58-97, known to contain the GAL11P-interacting sequence, overexpressed from vector pESBA-ADH1			could be specifically inhibited

Source: patent US6821728B1, “Screening system” (priority 1998, dated 2004)
